Assay results from article PMC8775250, “Cryo-EM Structure of the Rhodobacter sphaeroides Light-Harvesting 2 Complex at 2.1 Å” (Biochemistry, 2021).
Ends that are not written are not given here.

B1: LH2 α-polypeptide of the Rhodobacter sphaeroides light-harvesting 2 (LH2) complex (natural protein, Rhodobacter sphaeroides 2.4.1, UniProt Q3J144 1-54, looked up)
chain: carboxyl-MTNGKIWLVVKPTVGVPLFLSAAVIASVVIHAAVLTTTTWLPAYYQGSAAVAAE
notes: Met1 is the N-terminus in the structure; nine copies form the inner ring; also called α-apoprotein

Tests used:
[1] = target: the molecule itself; test: cryo-EM structure; single-particle cryo-EM of the LH2 complex purified from membranes in 20 mM HEPES pH 7.8 with 0.1% LDAO; C9 symmetry imposed; 2.1 Å
[2] = target: B1; test: as above; conditions: both partners purified

| binding result [2] | Binder | stoichiometry N [1] |
| --- | --- | --- |
|  | B1 | 9 |
| binds | LH2 β-polypeptide of the Rhodobacter sphaeroides light-harvesting 2 (LH2) complex (natural protein, Gly51 is the C-terminus; N-terminal, transmembrane and C-terminal regions of 14, 32 and 5 residues; nine copies form the outer ring) not shown | 9 |
